Article PMC9712776 (2022)

B1: dynamin-2 (human Dyn2 isoform 1), wild type [human] / GST-tagged SH3 domain of endophilin [mouse] (parent complex)
chain 1: MGNRGMEELIPLVNKLQDAFSSIGQSCHLDLPQIAVVGGQSAGKSSVLENFVGRDFLPRGSGIVTRRPLILQLIFSKTEHAEFLHCKSKKFTDFDEVRQEIEAETDRVTGTNKGISPVPINLRVYSPHVLNLTLIDLPGITKVPVGDQPPDIEYQIKDMILQFISRESSLILAVTPANMDLANSDALKLAKEVDPQGLRTIGVITKLDLMDEGTDARDVLENKLLPLRRGYIGVVNRSQKDIEGKKDIRAALAAERKFFLSHPAYRHMADRMGTPHLQKTLNQQLTNHIRESLPALRSKLQSQLLSLEKEVEEYKNFRPDDPTRKTKALLQMVQQFGVDFEKRIEGSGDQVDTLELSGGARINRIFHERFPFELVKMEFDEKDLRREISYAIKNIHGVRTGLFTPDLAFEAIVKKQVVKLKEPCLKCVDLVIQELINTVRQCTSKLSSYPRLREETERIVTTYIREREGRTKDQILLLIDIEQSYINTNHEDFIGFANAQQRSTQLNKKRAIPNQGEILVIRRGWLTINNISLMKGGSKEYWFVLTAESLSWYKDEEEKEKKYMLPLDNLKIRDVEKGFMSNKHVFAIFNTEQRNVYKDLRQIELACDSQEDVDSWKASFLRAGVYPEKDQAENEDGAQENTFSMDPQLERQVETIRNLVDSYVAIINKSIRDLMPKTIMHLMINNTKAFIHHELLAYLYSSADQSSLMEESADQAQRRDDMLRMYHALKEALNIIGDISTSTVSTPVPPPVDDTWLQSASSHSPTPQRRPVSSIHPPGRPPAVRGPTPGPPLIPVPVGAAASFSAPPIPSRPGPQSVFANSDLFPAPPQIPSRPVRIPPGIPPGVPSRRPPAAPSRPTIIRPAEPSLLD
chain 2: not shown

Variants of: B1
Test: GST pulldown; 12 µg GST-endophilin-SH3, 6 µg purified Dyn2; parent: 1; read off a plot

ratio to parent	Variant
~0.93	chain 1 S848E
~1.1	chain 1 S848A
